Reference: PMC8756792

Biological target: Ribulose-5-phosphate epimerase of Leishmania donovani (Leishmania donovani)
Assay: SEC

Ribulose-5-phosphate epimerase of Leishmania donovani (enzyme)
stoichiometry N: 2
